The record followed here is paper doi:10.1101/2020.12.01.405779.

The target in one assay is FUL3 (wheat). Briefly: two-hybrid.
Another assay deals with FUL2 (wheat). Briefly: two-hybrid.

On to “VRT2 (Bridge protein of the yeast three-hybrid assay) (natural protein)”, for which the percent reduction of the α-gal activity of the FUL3 - SEP1-2 interaction with FUL3 (wheat) stood at 93.8%. In the assay with FUL2 (wheat), the percent reduction of the α-gal activity of the FUL2 - SEP1-2 interaction came to 12%, the percent reduction of the α-gal activity of the FUL2 - SEP1-4 interaction is 20.6% and the percent reduction of the α-gal activity of the FUL2 - SEP1-6 interaction turned out to be 22%.
